Where two headings read alike, the source gives them in different places.
T1: 2C-121-270aa小肽段 #3 (CVA10病毒 (coxsackievirus A10))
T1 peptide: PGTGKSLATGIIARA

T2: 2C-121-270aa小肽段 #4 (CVA10病毒 (coxsackievirus A10))
T2 peptide: SLATGIIARAIADKY

B1: M3-8单克隆抗体 (M3-8 mAb) (antibody, V domains shown)
VH: QVQLQQSGAELVRPGASVKLSCKALGYTFADNEMHWVKQTPVHGLEWIGGIHPGSGGTAYNQKFKGKATLTADKSSSTAYMELSSLTSEDSAVYYCTRDYYWYDEGFDYWGQGTTLTVSS
VL: DIVMTQTPLSLPVSLGDQASISCRSSQSLVHSNGNTYLHWYLQKPGQSPELLIYKVSNRFSGVPDRFSGSGSGTDFTLKISRVEAEDLGVYFCSQSTHIPLTFGAGTKLELK
notes: also called M3-8细胞上清; 纯化的单克隆抗体(M3-8 mAb)
B2: M3-8重组抗体 (antibody, V domains shown)
VH: B1 VH
VL: B1 VL
notes: also called M3-8 mAb重组抗体

Legend:
CVB3病毒2C蛋白 [1] = target: T3, CVB3病毒2C蛋白 (CVB3, UniProt P03313 1101-1429)
T3 construct: domain: 2C蛋白

2C-121-270aa肽段 = target: T4, 2C-121-270aa肽段 (CVA10病毒 (coxsackievirus A10)); assay: western blot on truncated 2C fragments expressed in 293T cells
T4 construct: Expressed in 293T cells from pcDNA6.0 and detected with a Flag antibody, so it carries a Flag tag

2C-121-270aa小肽段 #3 = target: T1, 2C-121-270aa小肽段 #3; assay: ELISA on coated synthetic peptides
2C-121-270aa小肽段 #4 = target: T2, 2C-121-270aa小肽段 #4; assay: ELISA on coated synthetic peptides
CVB3病毒2C蛋白 [2] = target: T3, CVB3病毒2C蛋白; remark: listed apart in the source
CVA10病毒2C蛋白 = target: T5, CVA10病毒2C蛋白 (CVA10病毒 (coxsackievirus A10), UniProt Q65900 1112-1440); assay: western blot on virus-infected RD cells
T5 construct: In ELISA it was purified 2C protein from prokaryotic expression, coated on the plate; In western blot, immunofluorescence and flow cytometry it was the 2C protein made in CVA10-infected RD cells (intracellular); also called CVA10-2C

Binder	binding result (CVB3病毒2C蛋白 [1])	binding result (2C-121-270aa肽段)	binding result (2C-121-270aa小肽段 #3)	binding result (2C-121-270aa小肽段 #4)	binding result (CVB3病毒2C蛋白 [2])	binding result (CVA10病毒2C蛋白)
B1	no binding	binds	binds	binds	–	–
B2	–	–	–	–	no binding	binds
